Data published in PMC3167817, “A Neutralizing RNA Aptamer against EGFR Causes Selective Apoptotic Cell Death”.

Experiments:
[1] = molecular target: EC-EGFR (soluble extracellular domain), disulfide-linked homodimer (human, UniProt P00533 25-645); assay: filter binding; Filter binding: 1 nM radiolabeled RNA, PBS + 0.01% BSA, 15 min, 37 C (5 mM DTT for monomer); CL4sc background subtracted; pull-down: 200 nM aptamer on A549 cells 30 min RT, lysis in 10 mM Tris-HCl pH 7.5, 200 mM NaCl, 5 mM EDTA, 0.1% Triton X-100; conditions: protein: commercial, chain copies: 2
[2] = molecular target: EC-ErbB3 (soluble extracellular domain), disulfide-linked homodimer (human, UniProt P21860 20-643); assay: filter binding; 20 and 40 nM protein; Filter binding: 1 nM radiolabeled RNA, PBS + 0.01% BSA, 15 min, 37 C (5 mM DTT for monomer); CL4sc background subtracted; pull-down: 200 nM aptamer on A549 cells 30 min RT, lysis in 10 mM Tris-HCl pH 7.5, 200 mM NaCl, 5 mM EDTA, 0.1% Triton X-100; conditions: protein: commercial, chain copies: 2
Chain of EC-ErbB3 (soluble extracellular domain), disulfide-linked homodimer (P21860 20-643): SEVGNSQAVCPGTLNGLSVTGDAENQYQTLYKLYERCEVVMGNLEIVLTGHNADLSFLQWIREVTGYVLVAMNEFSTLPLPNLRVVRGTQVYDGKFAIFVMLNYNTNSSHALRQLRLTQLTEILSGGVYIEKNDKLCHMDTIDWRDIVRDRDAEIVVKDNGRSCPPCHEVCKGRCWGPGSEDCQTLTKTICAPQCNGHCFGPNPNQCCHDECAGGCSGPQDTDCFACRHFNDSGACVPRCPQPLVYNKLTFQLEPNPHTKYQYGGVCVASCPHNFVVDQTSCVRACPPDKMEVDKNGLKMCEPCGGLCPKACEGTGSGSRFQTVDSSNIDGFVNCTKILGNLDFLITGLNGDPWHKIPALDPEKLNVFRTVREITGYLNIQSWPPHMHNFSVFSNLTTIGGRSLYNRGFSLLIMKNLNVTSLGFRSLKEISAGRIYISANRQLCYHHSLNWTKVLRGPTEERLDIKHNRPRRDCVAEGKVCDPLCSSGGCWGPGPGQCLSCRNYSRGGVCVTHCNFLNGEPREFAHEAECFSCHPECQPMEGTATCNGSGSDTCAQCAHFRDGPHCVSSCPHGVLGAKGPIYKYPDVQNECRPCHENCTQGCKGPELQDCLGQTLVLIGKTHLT

B1: CL4 (structured_RNA)
RNA: GCCUUAGUAACGUGCUUUGAUGUCGAUUCGACAGGAGGC
modifications: 2'-fluoro pyrimidines
**Q.** For B1, which Kd [1] is on record?
**A.** 10 nM

**Q.** Does B1 bind [2]?
**A.** no binding
